B1: Regulator of RpoS (Escherichia coli (strain K12)), P0AEV1 (parent)
chain: MTQPLVGKQILIVEDEQVFRSLLDSWFSSLGATTVLAADGVDALELLGGFTPDLMICDIAMPRMNGLKLLEHIRNRGDQTPVLVISATENMADIAKALRLGVEDVLLKPVKDLNRLREMVFACLYPSMFNSRVEEEERLFRDWDAMVDNPAAAAKLLQELQPPVQQVISHCRVNYRQLVAADKPGLVLDIAALSENDLAFYCLDVTRAGHNGVLAALLLRALFNGLLQEQLAHQNQRLPELGALLKQVNHLLRQANLPGQFPLLVGYYHRELKNLILVSAGLNATLNTGEHQVQISNGVPLGTLGNAYLNQLSQRCDAWQCQIWGTGGRLRLMLSAE
partner: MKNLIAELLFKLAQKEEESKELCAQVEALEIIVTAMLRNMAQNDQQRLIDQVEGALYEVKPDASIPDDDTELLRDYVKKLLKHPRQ

Variants of: B1
Conditions: with irap_ecoli iraP

effect of a mutation on the interaction	Variant
decreasing interaction strength	MTQPLVGKQILIVEDEQVFRSLLDSWFSSLGATTVLAADGVDALELLGGFTPDLMICAIAMPRMNGLKLLEHIRNRGDQTPVLVISATENMADIAKALRLGVEDVLLKPVKDLNRLREMVFACLYPSMFNSRVEEEERLFRDWDAMVDNPAAAAKLLQELQPPVQQVISHCRVNYRQLVAADKPGLVLDIAALSENDLAFYCLDVTRAGHNGVLAALLLRALFNGLLQEQLAHQNQRLPELGALLKQVNHLLRQANLPGQFPLLVGYYHRELKNLILVSAGLNATLNTGEHQVQISNGVPLGTLGNAYLNQLSQRCDAWQCQIWGTGGRLRLMLSAE [D58A]
disrupting interaction strength	MTQPLVGKQILIVEDEQVFRSLLDSWFSSLGATTVLAADGVDALELLGGFTPDLMICPIAMPRMNGLKLLEHIRNRGDQTPVLVISATENMADIAKALRLGVEDVLLKPVKDLNRLREMVFACLYPSMFNSRVEEEERLFRDWDAMVDNPAAAAKLLQELQPPVQQVISHCRVNYRQLVAADKPGLVLDIAALSENDLAFYCLDVTRAGHNGVLAALLLRALFNGLLQEQLAHQNQRLPELGALLKQVNHLLRQANLPGQFPLLVGYYHRELKNLILVSAGLNATLNTGEHQVQISNGVPLGTLGNAYLNQLSQRCDAWQCQIWGTGGRLRLMLSAE [D58P]

Reference: IntAct's records for PubMed 25988182
